Assay results as given in patent US12545899B2, “Luciferase enzymes for use with thermostable luciferins in bioluminescent assays” (Promega Corporation, priority 2018, dated 2026).
Numbering of substitutions follows the chain as printed. Names may count otherwise.

B1: MK0158: SEQ ID NO: 123; H244W+S193A+N228D+L305F+S306P+I109V+C38R+F55I+Y108F+A316W+Y339M+T342S+V348I+C257R+T284A+S313T+K353R+D435G (protein)
chain: MADKNILYGPEPFYPLEDGTAGEQMFDALSRYAAIPGRIALTNAHTKENVLYEEILKLSCRLAESFKKYGLKQNDTIAVCSENSLQFFLPVIASLYLGIIVAPVNDKFVERELIHSLGIVKPRIVFCSKNTFQKVLNVKSKLKSIETIIILDLNEDLGGYQCLNNFISQNSDSNLDVKKFKPYSFNRDDQVAAIMFSSGTTGLPKGVMLTHKNIVARFSIAKDPTFGDAINPTSAILTVIPFHWGFGMMTTLGYFTRGFRVVLMHTFEEKLFLQSLQDYKVESTLLVPSLMAFLAKSALVEKYDFPHLKEIATGGWPLSKEIGEMVKKRFKLNFVRQGMGLSETTSAILITPKGDAKPGSTGKIVPLHAVKVVDPTTGKILGPNEPGELYFKGPMIMKGYYNNEEATKAIIDNDGWLRSGDIAYYDNDGHFYIVGRRKSLIKYKGYQVAPAEIEGILLQHPYIVDAGVTGIPDEAAGELPAAGVVVQTGKYLNEQIVQDYVASQVSTAKRLRGGVKFLDEIPKGSTGKIDRKVLRQMLEKHTNGHHHHHHHH
B2: MK0159: SEQ ID NO: 124; H244W+S193A+N228D+L305F+S306P+I109V+C38R+F55I+Y108F+A316W+Y339M+T342S+V348I+T284A+T289S+S313T+W510R (protein)
chain: B1 chain with T284A, K353R
B3: MK0110: SEQ ID NO: 77; H244W (protein)
chain: MADKNILYGPEPFYPLEDGTAGEQMFDALSRYAAIPGCIALTNAHTKENVLYEEFLKLSCRLAESFKKYGLKQNDTIAVCSENSLQFFLPVIASLYLGIIVAPVNDKYVERELIHSLGIVKPRIVFCSKNTFQKVLNVKSKLKSIETIIILDLNEDLGGYQCLNNFISQNSDSNLDVKKFKPYSFNRDDQVASIMFSSGTTGLPKGVMLTHKNIVARFSIAKDPTFGDAINPTSAILTVIPFHWGFGMMTTLGYFTCGFRVVLMHTFEEKLFLQSLQDYKVESTLLVPTLMAFLAKSALVEKYDFPHLKEIASGGAPLSKEIGEMVKKRFKLNFVRQGYGLTEATSAVLITPKGDAKPGSTGKIVPLHAVKVVDPTTGKILGPNEPGELYFKGPMKMKGYYNNEEATKAIIDNDGWLRSGDIAYYDNDGHFYIVDRLKSLIKYKGYQVAPAEIEGILLQHPYIVDAGVTGIPDEAAGELPAAGVVVQTGKYLNEQIVQDYVASQVSTAKWLRGGVKFLDEIPKGSTGKIDRKVLRQMLEKHTNGHHHHHHHH
B4: MK0118: SEQ ID NO: 85; H244W+T344A+I396K+N228D+L305F+S306P+I109V (protein)
chain: B3 chain with S193A
B5: MK0113: SEQ ID NO: 80; T344A (protein)
chain: B3 chain with S193A, P306S
B6: MK0120: SEQ ID NO: 87; H244W+T344A+I396K+S193A+N228D+S306P+I109V (protein)
chain: B3 chain with S193A, A316M
B7: MK0125: SEQ ID NO: 92; H244W+T344A+I396L+S193A+N228D+L305F+S306P+I109V (protein)
chain: B3 chain with S193A, A316W, A344I
B8: MK0123: SEQ ID NO: 90; H244W+T344A+S193A+N228D+L305F+S306P+I109V (protein)
chain: B3 chain with S193A, T342S
B9: MK0112: SEQ ID NO: 79; S306P (protein)
chain: B3 chain with S193A, F305L
B10: MK0117: SEQ ID NO: 84; H244W+T344A+I396K+S193A+N228D+L305F+S306P (protein)
chain: B3 chain with S193A
B11: MK0121: SEQ ID NO: 88; H244W+T344A+I396K+S193A+N228D+L305F+I109V (protein)
chain: B3 chain with S193A, A316W
B12: MK0115: SEQ ID NO: 82; I396K (protein)
chain: B3 chain with S193A, K396I
B13: MK0111: SEQ ID NO: 78; L305F (protein)
chain: B3 chain with S193A, W244H
B14: MK0114: SEQ ID NO: 81; T344M (protein)
chain: B3 chain with S193A, A344T
B15: MK0124: SEQ ID NO: 91; H244W+T344M+I396K+S193A+N228D+L305F+S306P+I109V (protein)
chain: B3 chain with S193A, A344I
B16: MK0119: SEQ ID NO: 86; T344A+I396K+S193A+N228D+L305F+S306P+I109V (protein)
chain: B3 chain with S193A, V348I
B17: MK0116: SEQ ID NO: 83; I396L (protein)
chain: B3 chain with S193A, D228N
B18: MK0127: SEQ ID NO: 93; H244W+T344A+I396K+S193A+L305F+S306P+I109V (protein)
chain: B3 chain with K107N, S193A, T289S
B19: MK0122: SEQ ID NO: 89; H244W+I396K+S193A+N228D+L305F+S306P+I109V (protein)
chain: B3 chain with S193A, Y339M

Assay: Kinetic analysis of thermostable variants with D/L-luciferin (Tables 13, 14)
Type: biochemical
Conditions: BrightGlo Buffer, 2 mM ATP
Excerpt: (§1) Tables 13 and 14 include representative results of kinetic analysis of the thermostable variants with D/L luciferin, CS0333, and CS0280. The panel of enzyme variants highlight amino acid substitutions that further improve upon MK0137 in maximum luminescence (Vmax) or Km in different buffers with the different substrates tested (D/L-luciferin, CS0333, and CS0280). In particular, enzyme variants MK0151 and MK153 show improvements relative to MK0137 across multiple buffers with multiple substrates.

Molecule | Km [µM] | Vmax (RLU)
B1 | 0.109 | 2,509,334 RLU
B2 | 0.107 | 2,363,790 RLU

Same assay, conditions: Detection Reagent Buffer, 2 mM ATP

Molecule | Km [µM] | Vmax (RLU)
B1 | 0.451 | 365,701 RLU
B2 | 0.444 | 369,822 RLU

Assay: Differential scanning fluorimetry (DSF) analysis
Type: physicochemical
Conditions: Table 9A
In short: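 Enzymes mixed with Sypro Orange at 5× final, heated 30–95° C at 1° C per minute with fluorescence read every 60 s. Storage buffer 50 mM HEPES pH 7.5, 100 mM NaCl, 2 mM EDTA, or for luciferase variants 20 mM HEPES pH 7.5, 200 mM NaCl, 1 mM EDTA; per-minute fluorescence change plotted against temperature.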

Molecule | DSF Tm (° C.) [°C]
B3 | 80
B4 | 63
B5 | 71
B6 | 62
B7 | 69
B8 | 72
B9 | 80
B10 | 63
B11 | 62
B12 | 67
B13 | 79
B14 | 70
B15 | 70
B16 | 64
B17 | 73
B18 | 66
B19 | 69

Assay: Luminescence at 1 mM D/L-luciferin (Table 11)
Type: biochemical
Conditions: 1 mM substrate; 1 mM ATP; BrightGlo Buffer
Excerpt: (§2) Tables 10 and 11 include representative results of kinetic analysis of the thermostable variants with D/L luciferin, CS0333, and CS0280. […] MK0135 and MK0137 have amino acid substitutions that improve thermostability relative to MK0133 and MK0134, respectively, while retaining activity on the luciferin analogs CS0333 and CS0280.

Molecule | Vmax (RLU) D/L-luciferin BrightGlo Buffer
B1 | 3,261,120 RLU
B2 | 688,326 RLU

Same assay, conditions: 1 mM substrate; 1 mM ATP; Detection Reagent Buffer

Molecule | Vmax (RLU) D/L-luciferin Detection Reagent Buffer
B1 | 1,086,510 RLU
B2 | 106,195 RLU

Assay: Effect of individual mutations: maximum luminescence with CS0333
Type: biochemical
Conditions: 10 fM to 1 mM CS0333; Detection Reagent (DR) buffer
Experimental: Experiments were also conducted to evaluate and compare the activities of the various luciferase enzyme variants, including the effects of individual amino acid mutations. To evaluate the effect of individual mutations on luciferase enzyme variants, 0.005 mg/ml luciferase enzyme variant was mixed with 1 mM ATP+10 fM to 1 mM CS0333 in Detection Reagent (DR) buffer.

Molecule | Vmax (RLU) with CS0333
B3 | 9,534 RLU
B4 | 3,455,610 RLU
B5 | 1,948 RLU
B6 | 3,192,740 RLU
B7 | 2,625,480 RLU
B8 | 2,841,640 RLU
B9 | 1,232 RLU
B10 | 3,820,310 RLU
B11 | 2,643,970 RLU
B12 | 2,120 RLU
B13 | 1,166 RLU
B14 | 1,030 RLU
B15 | 4,270,690 RLU
B16 | 62,167 RLU
B17 | 7,428 RLU
B18 | 2,293,340 RLU
B19 | 962,171 RLU

Same assay, conditions: single point mutation introduced into the Ppe variant; DR buffer

Molecule | improvement of maximum luminescence with CS0333 above background [fold]
B3 | ~5

Assay: Kinetic analysis of thermostable variants with CS0333 (Tables 13, 14)
Type: biochemical
Conditions: BrightGlo Buffer, 2 mM ATP
Excerpt: as §1

Molecule | Km [µM] | Vmax (RLU)
B1 | 14.6 | 1,546,728 RLU
B2 | 14.7 | 1,528,708 RLU

Same assay, conditions: Detection Reagent Buffer, 2 mM ATP

Molecule | Km [µM] | Vmax (RLU)
B1 | 20.8 | 524,381 RLU
B2 | 20.9 | 523,610 RLU

Assay: Luminescence at 1 mM CS0333 (Table 11)
Type: biochemical
Conditions: 1 mM substrate; 1 mM ATP; BrightGlo Buffer
Excerpt: as §2

Molecule | Vmax (RLU) CS0333 BrightGlo Buffer
B1 | 4,043,790 RLU
B2 | 6,850,630 RLU

Same assay, conditions: 1 mM substrate; 1 mM ATP; Detection Reagent Buffer

Molecule | Vmax (RLU) CS0333 Detection Reagent Buffer
B1 | 1,508,370 RLU
B2 | 4,630,740 RLU

Assay: Kinetic analysis of thermostable variants with CS0280 (Tables 13, 14)
Type: biochemical
Conditions: BrightGlo Buffer, 2 mM ATP
Excerpt: as §1

Molecule | Km [µM] | Vmax (RLU)
B1 | 2.94 | 426,927 RLU
B2 | 2.78 | 439,625 RLU

Same assay, conditions: Detection Reagent Buffer, 2 mM ATP

Molecule | Km [µM] | Vmax (RLU)
B1 | 568 | 39,068 RLU
B2 | 602 | 40,925 RLU

Assay: Luminescence at 1 mM CS0280 (Table 11)
Type: biochemical
Conditions: 1 mM substrate; 1 mM ATP; BrightGlo Buffer
Excerpt: as §2

Molecule | Vmax (RLU) CS0280 BrightGlo Buffer
B1 | 1,523,240 RLU
B2 | 2,094,150 RLU

Same assay, conditions: 1 mM substrate; 1 mM ATP; Detection Reagent Buffer

Molecule | Vmax (RLU) CS0280 Detection Reagent Buffer
B1 | 41,712 RLU
B2 | 110,050 RLU
